The record followed here is PMC6821365.

Numbering of substitutions follows the chain as printed.

In one series the target is T1, yedK R85A (Escherichia coli (gene from BL21 …, UniProt P76318 2-222, R85A)).
T1 sequence: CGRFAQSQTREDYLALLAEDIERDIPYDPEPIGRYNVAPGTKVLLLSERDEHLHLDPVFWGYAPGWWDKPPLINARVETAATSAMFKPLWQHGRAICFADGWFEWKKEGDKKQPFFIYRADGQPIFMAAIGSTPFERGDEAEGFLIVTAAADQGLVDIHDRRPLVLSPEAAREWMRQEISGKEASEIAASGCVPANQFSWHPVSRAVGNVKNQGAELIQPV
Briefly: ITC.

Another series addresses T2, yedK W67A (Escherichia coli (gene from BL21 …, UniProt P76318 2-222, W67A)).
T2 sequence: T1 sequence with W66A, A84R
The series can be described thus: ITC. (In general: Isothermal titration calorimetry measures the heat released or taken up as one component is titrated into another.)

CGGTCGATTC (ssDNA) [ssDNA]: the Kd – broadly, the equilibrium constant for the complex coming apart – with yedK R85A is 16.9 µM. In addition, the binding result in the series with yedK W67A is listed as “no binding”.
